Experiment [1] addresses human melanocortin receptor-4 (human) (UniProt P32245). Briefly: competition with [I125]-NDP-α-MSH, hMC4r HEK-293 membranes.
The target of experiment [2] is human melanocortin receptor-4 (human), P32245. Described as above. The settings on record: remark: other sources report otherwise.
The target of experiment [3] is human melanocortin receptor-4 (human) (UniProt P32245). Briefly: cell-based or functional assay.
For experiment [4] the target is unchanged. Briefly: competition with Eu-NDP-α-MSH, hMC4r HEK-293 membranes.

Positions of bridges follow the written chain, without caps; N, C: chain ends. Non-standard residues stand in square brackets, D forms with d. Dab = NCC[C@H](N)C(=O)O

The text below walks through data of patent publication US10660939.

Chain of human melanocortin receptor-4 (human) (P32245 whole entry): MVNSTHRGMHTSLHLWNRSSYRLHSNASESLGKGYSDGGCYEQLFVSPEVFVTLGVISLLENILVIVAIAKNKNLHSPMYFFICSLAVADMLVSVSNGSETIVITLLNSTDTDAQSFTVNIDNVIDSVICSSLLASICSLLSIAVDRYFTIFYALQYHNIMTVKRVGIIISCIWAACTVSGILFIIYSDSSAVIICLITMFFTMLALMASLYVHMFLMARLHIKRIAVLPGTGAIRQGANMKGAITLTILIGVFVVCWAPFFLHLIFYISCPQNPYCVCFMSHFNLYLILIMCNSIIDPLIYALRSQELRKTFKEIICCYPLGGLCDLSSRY
Chain of human melanocortin receptor-4 (human), P32245 (P32245 whole entry): as above

B1: Peptide No. 136 (peptide)
peptide: RXXFRWX
modifications: N-terminal Ac; Dab 2 (X); Dab 3 (X); D-Phe 4; hGlu 7 (X); cyclo(Dab 2-hGlu 7); C-terminal OH
One may read the Ki as the dissociation constant of the complex between target and ligand, obtained from inhibition or displacement. On to B1, for which the Ki in experiment [1] came out at 35 nM.

B2: Peptide No. 164 (peptide)
peptide: Ac-RD[Dab][dF]RWK-OH
modifications: lactam 2-7
B2 came in with a Ki in experiment [2] of 57 nM.

B3: Peptide No. 144 (peptide)
peptide: RXXFRWX
modifications: N-terminal Ac; hGlu 2 (X); Dab 3 (X); D-Phe 4; Dab 7 (X); cyclo(hGlu 2-Dab 7); C-terminal OH
For the molecule B3, the inhibitory constant (Ki) in experiment [1] was determined as 45 nM.

B4: Peptide No. 129 (peptide)
peptide: RXXFRWX
modifications: N-terminal Ac; Dab 2 (X); Dab 3 (X); D-Phe 4; hGlu 7 (X); cyclo(Dab 2-hGlu 7); C-terminal NH2
In experiment [3], B4 had an EC50 (cAMP) of 0.065 nM and an intrinsic activity (cAMP, NDP-α-MSH is 100%) of 96%. The molecule further registered a Ki in experiment [4] of 4 nM.

B5: Peptide No. 163 (peptide)
peptide: Ac-RD[Dab][dF]RWK-NH2
modifications: lactam 2-7
Consider B5, for which the inhibition constant (Ki) in experiment [2] was determined as 4 nM. That is a single-digit nanomolar value.

B6: Peptide No. 127 (peptide)
peptide: RXXFRWX
modifications: N-terminal Ac; hGlu 2 (X); Dab 3 (X); D-Phe 4; Dab 7 (X); cyclo(hGlu 2-Dab 7); C-terminal NH2
With B6, in experiment [3], the EC50 (cAMP) is 0.06 nM and the intrinsic activity (cAMP, NDP-α-MSH is 100%) came out at 98%. The molecule further came in with a Ki in experiment [4] of 2 nM.
